# According to PMC4198210:
# Target: phosphorylated PhoP-His (recombinant N-terminal His-tag PhoP protein of Photorhabdus luminescens TT01, phosphorylated in vitro with acetyl phosphate) (Photorhabdus luminescens TT01)
# Assay: Mn2+-Phos-tag SDS-PAGE; 4 ug purified PhoP-His incubated in vitro with 50 mM acetyl phosphate (lane 2) or without (lane 1) in the EMSA buffer; precast 12.5% polyacrylamide Mn2+-Phos-tag gel run at 4°C and 150 V; Coomassie stain
substance,measurement,value
"phosphorylated PhoP-His (recombinant N-terminal His-tag PhoP protein of Photorhabdus luminescens TT01, phosphorylated in vitro with acetyl phosphate) (natural protein)",stoichiometry N,2
